Consider 167 variants from the Human Domainome abundance scans (Beltran et al. 2025).

± gives the uncertainty stated by the source.

B1: Tudor domain-containing protein 3, residues 554 to 611; numbered along this chain, Q9H7E2 (parent)
chain: KMWKPGDECFALYWEDNKFYRAEVEALHSSGMTAVVKFIDYGNYEEVLLSNIKPIQTE
B2: Transcription intermediary factor 1-beta, residues 620 to 671; numbered along this chain, Q13263 (parent)
chain: TLDDSATICRVCQKPGDLVMCNQCEFCFHLDCHLPALQDVPGEEWSCSLCHV

One series covers variants of B1. The experiment in a line: abundance fitness (aPCA) (normalised: wild type 0, dead -1); higher = more abundant; growth selection in yeast, the domain comes from the species named. As to conditions: Homo sapiens.
With K37I, the abundance fitness is -0.968 ± 0.25.

With K37Y, the abundance fitness is -0.098 ± 0.14.

As to A26H, the abundance fitness is -0.031 ± 0.21.

On to A26T, for which the abundance fitness worked out at 0.109 ± 0.17.

As to E58M, the abundance fitness was -0.175 ± 0.14.

Turning to E58K, the abundance fitness was -0.024 ± 0.2.

Consider E58V, for which the abundance fitness is -0.136 ± 0.084.

Turning to E58I, the abundance fitness is -0.187 ± 0.23.

Turning to K53L, the abundance fitness was -0.217 ± 0.07.

Take K53I: the abundance fitness is -0.145 ± 0.092.

In the case of N51T, the abundance fitness was -0.529 ± 0.077.

On to N51W, for which the abundance fitness was -0.271 ± 0.077.

For the variant D16P, the abundance fitness was -0.602 ± 0.12.

Regarding E46G, the abundance fitness is -0.88 ± 0.095.

Regarding E46M, the abundance fitness was -0.342 ± 0.12.

In the case of E46Y, the abundance fitness was -0.324 ± 0.11.

M2N: the abundance fitness was -0.169 ± 0.17.

Regarding M2R, the abundance fitness is -0.254 ± 0.086.

For the variant M2P, the abundance fitness was -0.36 ± 0.1.

In the case of T57R, the abundance fitness was -0.047 ± 0.059.

Turning to T57F, the abundance fitness was -0.123 ± 0.1.

With E25C, the abundance fitness is -0.019 ± 0.097.

Take E25S: the abundance fitness came to 0.022 ± 0.06.

On to E25I, for which the abundance fitness amounted to 0.011 ± 0.11.

For E25A, the abundance fitness is 0.062 ± 0.079.

Consider S29G, for which the abundance fitness is -0.107 ± 0.057.

S29V: the abundance fitness amounted to 0.118 ± 0.064.

On to S29A, for which the abundance fitness was found to be 0.114 ± 0.075.

Turning to S29L, the abundance fitness is -0.125 ± 0.06.

For S29Y, the abundance fitness was -0.061 ± 0.092.

For E15F, the abundance fitness is -0.149 ± 0.1.

Turning to E15Y, the abundance fitness was 0.099 ± 0.11.

As for E15K, the abundance fitness stood at 0.081 ± 0.082.

R21H: the abundance fitness was -0.143 ± 0.089.

For the variant R21V, the abundance fitness was -0.508 ± 0.078.

L27G: the abundance fitness is -0.974 ± 0.076.

Regarding L27W, the abundance fitness is -0.76 ± 0.1.

In the case of L27M, the abundance fitness is -0.181 ± 0.11.

Turning to F19H, the abundance fitness is -0.457 ± 0.17.

With V36A, the abundance fitness is -0.92 ± 0.097.

Turning to V36G, the abundance fitness was -0.833 ± 0.076.

For the variant Y13I, the abundance fitness was -0.975 ± 0.24.

Consider Y13C, for which the abundance fitness came to 0.068 ± 0.1.

With Y44L, the abundance fitness is -0.05 ± 0.077.

Consider Y44Q, for which the abundance fitness was -0.206 ± 0.12.

Take E45C: the abundance fitness is -0.262 ± 0.079.

Take G42H: the abundance fitness was -0.395 ± 0.18.

For the variant G42T, the abundance fitness is -0.736 ± 0.27.

G31C: the abundance fitness was -0.12 ± 0.069.

G31R: the abundance fitness was -0.033 ± 0.055.

For the variant L12G, the abundance fitness was -0.782 ± 0.086.

On to L12Q, for which the abundance fitness was -0.252 ± 0.09.

Regarding L12T, the abundance fitness was -0.861 ± 0.12.

For the variant V35F, the abundance fitness is -0.186 ± 0.1.

Take A34L: the abundance fitness was -0.404 ± 0.074.

Regarding N43E, the abundance fitness was -0.079 ± 0.061.

For the variant N43W, the abundance fitness is -0.059 ± 0.058.

In the case of W3E, the abundance fitness is -0.866 ± 0.17.

As for W3K, the abundance fitness was -1.01 ± 0.3.

Turning to Y20S, the abundance fitness is -0.59 ± 0.083.

Y20T: the abundance fitness was -0.871 ± 0.12.

Turning to Y20A, the abundance fitness was -0.228 ± 0.068.

On to M32T, for which the abundance fitness was 0.046 ± 0.075.

On to T33H, for which the abundance fitness was -0.126 ± 0.089.

On to T33Q, for which the abundance fitness was -0.287 ± 0.094.

With E23W, the abundance fitness is -0.176 ± 0.08.

Regarding E23L, the abundance fitness was -0.225 ± 0.062.

As to K18S, the abundance fitness is -0.254 ± 0.067.

As for I39P, the abundance fitness was -0.278 ± 0.11.

For I39A, the abundance fitness is -0.036 ± 0.063.

Turning to L48W, the abundance fitness was -0.356 ± 0.071.

As to L48Y, the abundance fitness is -0.247 ± 0.12.

Turning to L48A, the abundance fitness is -0.049 ± 0.07.

With L48M, the abundance fitness is -0.113 ± 0.069.

D7Q: the abundance fitness was -0.321 ± 0.094.

In the case of D7P, the abundance fitness is -0.706 ± 0.1.

Turning to D7R, the abundance fitness was -0.762 ± 0.07.

Regarding P54S, the abundance fitness is -0.158 ± 0.063.

As for Y41C, the abundance fitness was -0.019 ± 0.075.

In the case of Y41F, the abundance fitness amounted to 0.162 ± 0.1.

As for Y41W, the abundance fitness was -0.029 ± 0.08.

Consider I55P, for which the abundance fitness is -0.084 ± 0.11.

On to I55K, for which the abundance fitness is -0.139 ± 0.089.

On to I55G, for which the abundance fitness was -0.351 ± 0.051.

As for W14M, the abundance fitness was found to be 0.066 ± 0.1.

Turning to W14N, the abundance fitness was determined as 0.139 ± 0.1.

With W14G, the abundance fitness is 0.073 ± 0.054.

Consider W14L, for which the abundance fitness was -0.034 ± 0.062.

Regarding W14Y, the abundance fitness is -0.006 ± 0.12.

Regarding W14K, the abundance fitness stood at 0.166 ± 0.1.

On to G6W, for which the abundance fitness is -0.545 ± 0.093.

On to G6Q, for which the abundance fitness is -0.832 ± 0.19.

As to H28Y, the abundance fitness was -0.401 ± 0.11.

For H28D, the abundance fitness was -0.144 ± 0.11.

Take H28L: the abundance fitness was -0.087 ± 0.062.

As for K1Y, the abundance fitness was -0.158 ± 0.27.

With K1L, the abundance fitness is -0.187 ± 0.18.

As for S30E, the abundance fitness was -0.143 ± 0.081.

For S30L, the abundance fitness was -0.37 ± 0.073.

Turning to N17M, the abundance fitness is -0.191 ± 0.098.

With N17S, the abundance fitness is -0.117 ± 0.072.

Take N17C: the abundance fitness is -0.349 ± 0.16.

As for F10M, the abundance fitness turned out to be 0.068 ± 0.085.

For the variant F10I, the abundance fitness was -0.076 ± 0.1.

As to K4N, the abundance fitness is -0.233 ± 0.13.

Consider K4V, for which the abundance fitness was -0.244 ± 0.065.

In the case of L49C, the abundance fitness was -0.243 ± 0.092.

As to L49W, the abundance fitness was -0.629 ± 0.1.

On to I52P, for which the abundance fitness was -0.639 ± 0.12.

For the variant I52Y, the abundance fitness was -0.923 ± 0.16.

On to I52Q, for which the abundance fitness is -1.01 ± 0.19.

Take V24Q: the abundance fitness is -0.986 ± 0.12.

In the case of V24I, the abundance fitness is -0.027 ± 0.13.

For V24G, the abundance fitness is -0.994 ± 0.094.

For V24L, the abundance fitness is -0.215 ± 0.059.

A22K: the abundance fitness is -1.03 ± 0.14.

Turning to A22N, the abundance fitness was -0.986 ± 0.3.

In the case of P5W, the abundance fitness is -0.926 ± 0.1.

Regarding P5Q, the abundance fitness is -0.061 ± 0.09.

With P5C, the abundance fitness was -0.201 ± 0.073.

Take F38R: the abundance fitness was -0.894 ± 0.081.

In the case of F38Q, the abundance fitness is -0.946 ± 0.13.

Regarding F38T, the abundance fitness is -0.987 ± 0.16.

For the variant F38V, the abundance fitness was -0.787 ± 0.077.

Turning to C9H, the abundance fitness was -0.817 ± 0.26.

Take C9W: the abundance fitness was -0.773 ± 0.095.

As for C9K, the abundance fitness is -0.915 ± 0.17.

Take C9Q: the abundance fitness was -0.93 ± 0.12.

The variants in another series derive from B2. Described as above. The conditions noted are these: Homo sapiens.
As to L2D, the abundance fitness was -0.078 ± 0.17.

Regarding L2I, the abundance fitness was -0.112 ± 0.19.

As for L2N, the abundance fitness was determined as 0.017 ± 0.25.

L2M: the abundance fitness amounted to 0.021 ± 0.17.

Take L2W: the abundance fitness is -0.323 ± 0.13.

In the case of L2K, the abundance fitness was -0.056 ± 0.33.

For L2S, the abundance fitness is -0.004 ± 0.14.

For L2G, the abundance fitness is -0.604 ± 0.16.

Consider L2P, for which the abundance fitness was 0.179 ± 0.27.

For L2R, the abundance fitness was -0.252 ± 0.12.

Consider L2E, for which the abundance fitness is 0.021 ± 0.17.

With L2H, the abundance fitness is -0.678 ± 0.4.

As to L2Q, the abundance fitness worked out at 0.016 ± 0.14.

For the variant L2Y, the abundance fitness came out at 0.045 ± 0.17.

With L2F, the abundance fitness is -0.168 ± 0.15.

Take L2C: the abundance fitness was -0.198 ± 0.18.

As to L2V, the abundance fitness was -0.13 ± 0.1.

For the variant T1N, the abundance fitness was found to be 0.184 ± 0.36.

In the case of T1G, the abundance fitness was -0.602 ± 0.27.

Take T1V: the abundance fitness is -0.043 ± 0.27.

Turning to T1K, the abundance fitness was determined as 0.109 ± 0.24.

For T1H, the abundance fitness is -0.593 ± 0.34.

On to T1S, for which the abundance fitness is -0.096 ± 0.17.

As for T1R, the abundance fitness is -0.495 ± 0.23.

Regarding T1W, the abundance fitness was -0.8 ± 0.33.

Consider T1M, for which the abundance fitness was -0.363 ± 0.32.

As to T1D, the abundance fitness was determined as 0.178 ± 0.35.

In the case of T1A, the abundance fitness was determined as 0.314 ± 0.28.

As for T1E, the abundance fitness is -0.11 ± 0.45.

Regarding D3C, the abundance fitness is -0.534 ± 0.17.

D3E: the abundance fitness was 0.13 ± 0.13.

For the variant D3F, the abundance fitness turned out to be 0.053 ± 0.12.

With D3I, the abundance fitness was -0.292 ± 0.2.

As for D3M, the abundance fitness was -0.529 ± 0.16.

On to D3L, for which the abundance fitness was -0.242 ± 0.11.

On to D3H, for which the abundance fitness is -0.205 ± 0.15.

For D3G, the abundance fitness is -0.411 ± 0.099.

For D3A, the abundance fitness is -0.723 ± 0.14.

On to D3K, for which the abundance fitness is 0.027 ± 0.2.
